Results reported in US20070036810A1, “Cyclic amp response element activator proteins and uses related thereto” (priority 2003, published 2007).

How the values were obtained:
[1] = system: Drosophila CRE (CRE-hsp-Luc reporter); test: CRE-hsp-Luc reporter assay in Drosophila S2 cells; format: cell-based, Drosophila melanogaster; conditions: 48 hours post-transfection
From the text: The amplified product was inserted into the Drosophila P-element transformation vector, pUAST (Brand and Perrimon, Development 118:401-415 (1993)). The final construct pUAS-dCREAP was used for transfection experiments in Drosophila melanogaster Schneider cells (S2). A firefly luciferase reporter was created which contained 4 copies of the drosophila CRE enhancer element (SEQ ID 39) (Eresh, S. et. Al. EMBO J. 16:2014-2022 (1997)) followed by hsp70 minimal promoter.
The S2 cells were transfected in 6 well plates (Costar) by the CaPO4 method (Bunch, T. and Goldstein, L. Nucleic Acids Res. 17:9761-9782 (1989)). A total of 25 ug of DNA was transfected into a 6-well dish containing 4 mls of cells (˜1×10^6 cells/ml). The transfection mix was removed after 18 hr and the luciferase assays were performed 48 hrs later. The UAS-transgenes were activated by co-transfection with the Actin promoter-Gal4 plasmid provided by Dr. Norbert Perrimon. The transfection efficiency was normalized co-transfection with hsp^mln Renilla luciferase driven by minimal heat shock promoter (made according to conventional methods). Luciferase activity was measured using the Dual-luciferase assay kit (Promega). […] Data were calculated as fold induction compared to the reporter gene's activity measured in the cells designated as negative control.

[2] = target: T1, ATF2-GAL4 fusion molecule (Homo sapiens, UniProt P15336); test: In vivo kinase assay, ATF2-GAL4 fusion in HLR cells; format: cell-based; conditions: 40 hours after transfection
T1 construct: host or cells: HLR cell line (5x GAL4 element-luciferase reporter)
Procedure: For in vivo kinase assay, activation domains of CREB or ATF2 transcription factors fused with the yeast GAL4 DNA binding domain (1-147 Amino Acids) constructs are used (Stratagene, PathDetect In Vivo Signal Transduction Pathway trans-reporting Systems). The HLR cell line that contains a 5× GAL4 DNA binding element and TATA box driving luciferase reporter is used per manufacturer's protocol (Stratagene). 10^4 HLR cells are split into each well of 96 well tissue culture plates. After 16 hours, cells are transfected with 100 ng of Creb-GAL4 or ATF2-GAL4 fusion constructs, 30 ng of Renilla luciferase control plasmid together with 100 ng of pCMVSPORT6, pCMVSPORT-CREAP1, pFC-PKA or pFC-MEKK (Stratagene) activator plasmids respectively. Transfection is done with Fugene6 reagent (Roche Molecular Biochemicals, Basel, Switzerland) according to the manufacturers manual. Forty hours after transfection, a Dual-Glo Luciferase assay (Promega) is conducted using the manufacturer's protocol.
As CREAP1 strongly activates CRE promoter transcription, we next investigated whether CREAP1 works through the CREB pathway. […]

[3] = system: human IL-8 promoter; test: pGL2-IL-8p-Luc reporter inducibility in HEK 293 cells; format: cell-based; conditions: expression construct co-transfected into HEK 293 cells, 48 hours post transfection
Procedure: A luciferase reporter controlled by a 1.5 kB IL-8 promoter containing fragment of human IL-8 promoter was tested for inducibility by known regulators of cytokine-mediated gene expression. pNF-κB-Luc (BD Biosciences) and pGL2-IL-8p-Luc reporters were co-transfected into HEK 293 cells with expression constructs encoding known activators of the NF-κB pathway, truncated MEKK (AA 360-672) (Stratagene) and a full length TRAF6 cDNA made according to conventional methods using a proprietary clone collection. Cells co-transfected with empty pCMV-Sport6 vector were either left untreated or treated with TNFα (50 ng/ml, for 16 hours). Luciferase activity was measured 48 hours post transfection. The pNF-κB-Luc reporter was used as a positive control.

[4] = system: CRE-like element of IL-8 promoter (pCREL-Luc); test: pCREL-Luc reporter (concatamerized CRE-like site) assay; format: cell-based; conditions: minimal promoter carrying concatamerized CRE-like site; data not shown
From the text: The pIL-8Luc reporter was constructed by insertion of the −1491 to +43 region of the human IL-8 gene into pGL3Basic vector (Promega, Inc). PCR was used to generate a wild type minimal IL-8 promoter as well as point mutants. Mutations in AP-1, C/EBP, NF-κB were as described by Wu et al. (Wu et al. J. Biol. Chem., 272:2396-2403 (1997)). The sequence of a putative CRE-like site TGACATAA was mutated to TCGATCAA. Promoter constructs carrying 6 concatamerised copies of CRE-like response element (pCREL-Luc) or 5 copies of CRE-like element TGACACAA found in human PEPCK and CAPL promoters (pCREL2-Luc) were prepared by ligating PCR amplified sequences into pTAL-Luc (BD Biosciences). All techniques were performed using conventional methods.
In order to determine if the “CRE-like element” was directly responsive to CREAP1 or MAP3K11, the ability of both genes to activate a minimal promoter carrying concatamerized CRE-like site (pCREL-Luc) was examined. In addition, we studied the effect of PMA known inducer of AP-1.

[5] = system: secreted IL-8 protein from HeLa cells; test: IL-8 Elisa assay in HeLa cells; format: cell-based; conditions: after transfection
Procedure: HeLa cells are transfected with DNA samples selected from the group of sequence verified and confirmed hits at 100 ng per well in 96 well plates (Costar) using the protocol described above. DNA samples designated as co-activators are co-transfected at 25 ng per well. Empty vector pCMV-Sport6 is used as a negative control. 72 hours post-transfection IL-8 content is measured in the cell growth media in prediluted aliquots corresponding to 1 to 5 μl of conditioned growth media using an IL-8 Elisa kit (Sigma) following the provided protocol. As a positive control, growth media is collected from the cells transfected with empty vector and treated with IL-1β and TNFα (R&D Systems) at 5 ng/ml and 50 ng/ml respectively for 16 hours prior to collection of the growth media for the IL-8 assay.

T1 sequence (P15336 with tags, fused parts or gaps limits assumed): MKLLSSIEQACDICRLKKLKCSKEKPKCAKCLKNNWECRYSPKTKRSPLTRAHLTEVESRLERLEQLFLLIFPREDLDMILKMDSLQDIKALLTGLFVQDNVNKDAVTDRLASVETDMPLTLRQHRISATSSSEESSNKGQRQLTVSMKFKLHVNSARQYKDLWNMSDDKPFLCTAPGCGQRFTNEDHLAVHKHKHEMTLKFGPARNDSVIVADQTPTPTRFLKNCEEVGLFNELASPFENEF

B1: dCREAP: Drosophila CREAP gene product, 797 amino acids, SEQ ID NO 27; expressed from pUAS-dCREAP (protein)
chain: MANPRKFSEKIALQKQKQAEGTAEFERIMKEVYATKRDEPPANQKILDGLVGGQEVSQSSPGAGNGTGGGGSGSGSGASGGGASPDGLGGGGGSPTAYRESRGRSVGVGPMRRPSERKQDRSPYGSSSTQQTLDNGQLNPHLLGPPTAESLWRRSSSDSALHQSALVAGFNSDVNSMGANYQQQQHQQQQQPGQPRSHSPHHGINRTMSPQAQRRKSPLLQPHQLQLQQLQQQQQQMQHQHQLHQQLQMQQLQQHQQQHQQQQQQQNTPYNNAKFTNPVFRPLQDQVNFANTGSLPDLTALQNYGPQQQQQQSQQQPSQQQQQLQQTLSPVMSPHNHRRERDQSPSPFSPAGGGGGAGPGSPYQQQQHSPTGNTQQQQQQHQQPSNSPHLSFTNLATTQAAVTTFNPLPTLGPHNATDYRQPPNPPSPRSSPGLLSSVSATDLHSSAPASPIRQQQQAHQQQQQQQQAQQQQQQFDNSYNSLNTSFHNQFEIFSLGDSNSSPEQQGFANNFVALDFDDLSGGGGGGPSGGGGSNGGGLTNGYNKPEMLDFSELSGSPEASGNNNHMRRGVSNLNNNGLSNGVVGSTHNGSTNLNGAGNNNSSSGGGTAQDPLGITTSPVPSPLGCPSSPLPIPIPMSAQSSPQQQHHHHQQQQQQHHQQQHHQQQQLSLSLHHSPHHSPMHSPHHGNSPLSSSSPVSHNACSNSNVVMNHQQQQQQHHHQQHHHQGSSQSHTPTTANIPSIIFSDYSSNADYTREIFDSLDLDLGQMDVAGLQMLSDQNPIMIADPNIEDSFRRDLN
modifications: drosophila melanogaster
Q: With B1 as the molecule, how does the Fold Activation ([1]; CRE-hsp-Luc reporter (4 copies of Drosophila CRE)) read?
A: 136.04

Q: What about the Fold Activation ([1]; hsp-Luc reporter without CRE) of the same molecule?
A: 0.96

B2: MEKK: truncated MEKK (AA 360-672) expression construct (Stratagene), known activator of the NF-κB pathway (protein, UniProt Q13233 360-672, looked up, fragment)
chain: FVMLRVFQLEPSDPMLWRKTLKNFEVESLFQKYHSRRSSRIKAPSRNTIQKFVSRMSNSHTLSSSSTSTSSSENSIKDEEEQMCPICLLGMLDEESLTVCEDGCRNKLHHHCMSIWAEECRRNREPLICPLCRSKWRSHDFYSHELSSPVDSPSSLRAAQQQTVQQQPLAGSRRNQESNFNLTHYGTQQIPPAYKDLAEPWIQVFGMELVGCLFSRNWNVREMALRRLSHDVSGALLLANGESTGNSGGSSGSSPSGGATSGSSQTSISGDVVEACCSVLSMVCADPVYKVYVAALKTLRAMLVYTPCHSLAE
Q: How did the “stimulation of ATF2 fusion” value [2] turn out when B2 was run?
A: more than 100 fold

Q: What about the “increase of IL-8 promoter-reporter activity” value [3] of the same molecule?
A: 16 times

B3: MAP3K11: Mitogen-Activated Protein Kinase Kinase Kinase 11 expression construct, AP-1 activator (protein, UniProt Q16584 1-847, looked up)
Mitogen-activated protein …: MEPLKSLFLKSPLGSWNGSGSGGGGGGGGGRPEGSPKAAGYANPVWTALFDYEPSGQDELALRKGDRVEVLSRDAAISGDEGWWAGQVGGQVGIFPSNYVSRGGGPPPCEVASFQELRLEEVIGIGGFGKVYRGSWRGELVAVKAARQDPDEDISVTAESVRQEARLFAMLAHPNIIALKAVCLEEPNLCLVMEYAAGGPLSRALAGRRVPPHVLVNWAVQIARGMHYLHCEALVPVIHRDLKSNNILLLQPIESDDMEHKTLKITDFGLAREWHKTTQMSAAGTYAWMAPEVIKASTFSKGSDVWSFGVLLWELLTGEVPYRGIDCLAVAYGVAVNKLTLPIPSTCPEPFAQLMADCWAQDPHRRPDFASILQQLEALEAQVLREMPRDSFHSMQEGWKREIQGLFDELRAKEKELLSREEELTRAAREQRSQAEQLRRREHLLAQWELEVFERELTLLLQQVDRERPHVRRRRGTFKRSKLRARDGGERISMPLDFKHRITVQASPGLDRRRNVFEVGPGDSPTFPRFRAIQLEPAEPGQAWGRQSPRRLEDSSNGERRACWAWGPSSPKPGEAQNGRRRSRMDEATWYLDSDDSSPLGSPSTPPALNGNPPRPSLEPEEPKRPVPAERGSSSGTPKLIQRALLRGTALLASLGLGRDLQPPGGPGRERGESPTTPPTPTPAPCPTEPPPSPLICFSLKTPDSPPTPAPLLLDLGIPVGQRSAKSPRREEEPRGGTVSPPPGTSRSAPGTPGTPRSPPLGLISRPRPSPLRSRIDPWSFVSAGPRPSPLPSPQPAPRRAPWTLFPDSDPFWDSPPANPFQGGPQDCRAQTKDMGAQAPWVPEAGP
Q: What does the source list for B3?
A: activation of pCREL-Luc [4]: neither by MAP3K11; accumulation of secreted IL-8 protein [5]: induced small increases
